# B1: CIS43 human monoclonal antibody (antibody, V domains shown)
# VH: QVQLVQSGAEVKKPGASVKVSCKASGYTFTSYAIHWVRQAPGQRLEWMGWIKAGNGNTRYSQKFQDRVTITRDTSTTTAYMELSSLRSEDTAVYYCALLTVLTPDDAFDIWGQGTMVTVSS
# VL: not shown
# Key:
# [1] = target: T1, recombinant Plasmodium falciparum circumsporozoite protein (rPfCSP) (Plasmodium falciparum 3D7, UniProt Q7K740 19-374); experiment: ITC; first site (KD1)
# [2] = target: T1, recombinant Plasmodium falciparum …; experiment: ITC; second site (KD2)
# T1 sequence (Q7K740 19-374): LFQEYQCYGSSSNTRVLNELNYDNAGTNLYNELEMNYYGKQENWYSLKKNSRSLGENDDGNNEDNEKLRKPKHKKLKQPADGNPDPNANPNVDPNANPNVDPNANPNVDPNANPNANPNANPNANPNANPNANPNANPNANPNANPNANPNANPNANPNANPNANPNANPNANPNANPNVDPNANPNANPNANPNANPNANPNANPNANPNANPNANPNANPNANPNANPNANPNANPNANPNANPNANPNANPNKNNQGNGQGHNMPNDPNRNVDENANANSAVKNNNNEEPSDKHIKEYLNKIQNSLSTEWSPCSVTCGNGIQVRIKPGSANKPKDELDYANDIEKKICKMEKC
binder,measurement,setting,value
B1,Kd,[1],7.9 nM
same,Kd,[2],42 nM

# Reference: PMC7934869 (2021)
